The record followed here is patent publication US20260234121A1, “DERIVATIVES, IMMUNOGENS, AND ANTIBODIES AND USE OF THE SAME IN DETECTION OF ECSTASY-CLASS COMPOUNDS” (Siemens Healthcare Diagnostics Inc., priority 2023, published 2026).

One experiment deals with E1-OVA (55). Put plainly: ELISA binding of hybridoma supernatant to E1-OVA (55) coated plates, without inhibitor. Conditions: hybridoma supernatant mixed with PBS alone. As to the method: All ELISA steps were performed at rt. Wells of a Nunc Maxi-Sorp™ flat-bottom ELISA plates (ThermoFisher Scientific, Waltham, MA) were coated with 50 μL E1-OVA (55), E2-OVA (65), and E3-OVA (72) at a concentration of 1 μg/mL in PBS for 1 h. The plates were flicked dried and remaining binding sites were blocked with 200 μL per well of blocking solution (0.5% casein, 0.05% (v/v) Tween 20 in PBS) for one hour. Plates were washed six times with MilliQ water containing 0.05% (v/v) Tween 20 on Biotek 405 LS plate washer equipped with microplate Biostacker 3 (Biotek, Winooski, VT). 50 μL of serially diluted antibody samples (serial dilutions of serum, hybridoma supernatant, or monoclonal antibodies in PBS) were added to each well and incubated for one hour. Unbound antibodies were removed by washing as described above, and 50 μL of secondary goat anti-rabbit IgG HRP or goat anti-mouse IgG (Fc)-HRP conjugate (ThermoFisher Scientific, USA), diluted 1:3,000 in the blocking solution was added to each well for detection bound rabbit or mouse antibody, respectively. Plates were incubated for one hour, washed and 100 μL of TMB substrate (Moss, Pasadena, MD) was added for 15 min to determine bound peroxidase. Optical density (OD) of the samples at 650 nm was measured using an ELISA plate reader (Molecular Devices LLC., San Jose, CA). The titer of each serum sample was designated as the maximum dilution that yielded at least twice the absorbance of the same dilution of the nonimmune control serum.
The supernatants were screened in a competitive ELISA for the presence of anti-ecstasy compound monoclonal antibodies (mAbs) as follows. 25 μL of the hybridoma supernatant was mixed with equal volume of PBS alone or containing 20 μg/mL inhibitor (MDA or MDMA) were incubated for 1 h in the wells of E1-OVA (55) coated ELISA plates. The plates were washed and the presence of bound mAbs were detected using goat anti-mouse IgG (Fc)-HRP conjugate and TMB substrate as described above. The level of inhibition of mAb/E1-OVA (55) binding in the presence of the inhibitor was estimated using a Percent (%) Inhibition calculated by the below formula:
[formula] • where “OD650 nm w/o Inhibitor” is the binding response of the antibody sample diluted in PBS alone (with no inhibitor), and the “OD650 nm with Inhibitor” is the binding response of the same antibody sample in the presence of 10 μg/mL of inhibitor (i.e., MDA or MDMA). […]

A short description of experiment [1]: Prototype EMIT ecstasy assay, cross-reactivity with methamphetamine. Format: biochemical. Conditions: conjugate Compound 58; negative urine pool.
Experiment [2] is described as follows: Prototype EMIT ecstasy assay, cross-reactivity with amphetamine. It counts as biochemical. Conditions: conjugate Compound 58; negative urine pool.

B1: 178K 3C8 mAb: mouse monoclonal antibody raised against E1-KLH (56); IgG1, κ; heavy chain SEQ ID NO 88, light chain SEQ ID NO 112 (antibody)
heavy: MNFGLSLIFLVLILKGVQCEVQLVESGGDLVKPGESLKLACAASGFTFSRDVMSWVRQTPDKRLEWVATISSNGIYIYYTDSVKGRFTISRDNAKNTLYLQLSSLRSEDTAVYYCSRGNNLDSWGQGTTLTVSSAKTTPPSVYPLAPGSAAQTNSMVTLGCLVKGYFPEPVTVTWNSGSLSSGVHTFPAVLQSDLYTLSSSVTVPSSTWPSETVTCNVAHPASSTKVDKKIVPRDCGCKPCICTVPEVSSVFIFPPKPKDVLTITLTPKVTCVVVDISKDDPEVQFSWFVDDVEVHTAQTQPREEQFNSTFRSVSELPIMHQDWLNGKEFKCRVNSAAFPAPIEKTISKTKGRPKAPQVYTIPPPKEQMAKDKVSLTCMITDFFPEDITVEWQWNGQPAENYKNTQPIMDTDGSYFIYSKLNVQKSNWEAGNTFTCSVLHEGLHNHHTEKSLSHSPGK
light: MRFSAQLLGLLVLWIPGSTADIVMTQAAFSNPVTLGTSASISCRSSKSLLHRNGITYLYWYLQKPGQSPQLLIYQMSNLASGVSDRFSSSGSGTDFTLRISRVEAEDVGVYFCGQDLELPYSFGGGTKLEIKRADAAPTVSIFPPSSEQLTSGGASVVCFLNNFYPKDINVKWKIDGSERQNGVLNSWTDQDSKDSTYSMSSTLTLTKDEYERHNSYTCEATHKTSTSPIVKSFNRNEC
Consider B1, for which, in the experiment with E1-OVA (55), the “E1-OVA (55) Binding, OD650 nm w/o inhib” value was found to be 2.389 OD650 nm. In addition, the “Concentrations (μg/mL) of Structurally Related Compounds Equivalent to 500 ng/mL MDMA Cutoffs, (+/−) mAmph” value (“Concentrations (μg/mL) … (+/−) mAmph” for short) in experiment [1] was 50 µg/mL. The “Concentrations (μg/mL) of Structurally Related Compounds Equivalent to 500 ng/mL MDMA Cutoffs, (+/−) Amph” value (shortened to “Concentrations (μg/mL) … (+/−) Amph”) in experiment [2] came out at 30 µg/mL.

B2: 178K 5B11 mAb: mouse monoclonal antibody raised against E1-KLH (56); IgG1, κ; heavy chain SEQ ID NO 90, light chain SEQ ID NO 114 (antibody)
heavy: MNFGLSLIFLALILKGVQCEVQLVESGGDLVKPGGSLKLSCAASGFSFSAYVMSWVRQTPDKRLEWVATISRGGSYIYYPDSVKGRFTISRDDARDTLYLQMTSLKSEDTAVYYCSGGNNLDYWGQGTALTVSSAKTTPPSVYPLAPGSAAQTNSMVTLGCLVKGYFPEPVTVTWNSGSLSSGVHTFPAVLQSDLYTLSSSVTVPSSTWPSETVTCNVAHPASSTKVDKKIVPRDCGCKPCICTVPEVSSVFIFPPKPKDVLTITLTPKVTCVVVDISKDDPEVQFSWFVDDVEVHTAQTQPREEQFNSTFRSVSELPIMHQDWLNGKEFKCRVNSAAFPAPIEKTISKTKGRPKAPQVYTIPPPKEQMAKDKVSLTCMITDFFPEDITVEWQWNGQPAENYKNTQPIMDTDGSYFIYSKLNVQKSNWEAGNTFTCSVLHEGLHNHHTEKSLSHSPGK
light: MRFSAQLLGLLVLWIPGSTADIVMTQAAFSNPVTLGTSASISCRSSKSLLQINGITYLYWYLQKPGQSPQLLIYQMSNLASGVPDRFSSSGSGTDFTLRISRVEAEDVGVYYCGQDLELPYTFGGGTKLEIKRADAAPTVSIFPPSSEQLTSGGASVVCFLNNFYPKDINVKWKIDGSERQNGVLNSWTDQDSKDSTYSMSSTLTLTKDEYERHNSYTCEATHKTSTSPIVKSFNRNEC
Take B2: the “E1-OVA (55) Binding, OD650 nm w/o inhib” value in the experiment with E1-OVA (55) was found to be 2.893 OD650 nm. Besides, in experiment [1], the “Concentrations (μg/mL) … (+/−) mAmph” value lay in the range of 30 to 50 µg/mL. The “Concentrations (μg/mL) … (+/−) Amph” value in experiment [2] fell in the range of 25 to 30 µg/mL.

B3: 178F 4H5 mAb: mouse monoclonal antibody raised against E1-KLH (56); IgG2a, κ; heavy chain SEQ ID NO 81, light chain SEQ ID NO 105 (antibody)
heavy: MNFGLSLIFLALILKGVQCEVQLVESGGDLVQPGGSLILSCVASGFTFRNYVMSWIRQTPDKRLEWVATINSGGSYTYYPDTVKGRFTISRDNAKSTLYLQMSSLKSEDTAMYYCASGNFLDYWGQGTSVTVSSAKTTPPSVYPLAPGSAAQTNSMVTLGCLVKGYFPEPVTVTWNSGSLSSGVHTFPAVLQSDLYTLSSSVTVPSSTWPSQTVTCNVAHPASSTKVDKKIVPRDCGCKPCICTVPEVSSVFIFPPKPKDVLTITLTPKVTCVVVDISKDDPEVQFSWFVDDVEVHTAQTKPREEQINSTFRSVSELPIMHQDWLNGKEFKCRVNSAAFPAPIEKTISKTKGRPKAPQVYTIPPPKEQMAKDKVSLTCMITNFFPEDITVEWQWNGQPAENYKNTQPIMDTDGSYFVYSKLNVQKSNWEAGNTFTCSVLHEGLHNHHTEKSLSHSPGK
light: MRFSAQLLGLLVLWIPGSTADIVMTQAAFSNPVTLGTSASISCRSSKSLLNSYGITYLYWYLQKPGQSPQLLIYQMSNLASGVPDRFSSSGSGTDFTLRISRVEAEDVGVYYCGQDLELPYTFGSGTQLEIKRADAAPTVSIFPPSSEQLTSGGASVVCFLNNFYPKDINVKWKIDGSERQNGVLNSWTDQDSKDSTYSMSSTLTLTKDEYERHNSYTCEATHKTSTSPIVKSFNRNEC
Regarding B3, in the experiment on E1-OVA (55), the “E1-OVA (55) Binding, OD650 nm w/o inhib” value came to 2.948 OD650 nm. In addition, the “Concentrations (μg/mL) … (+/−) mAmph” value in experiment [1] lay within 30 to 40 µg/mL. In addition, the “Concentrations (μg/mL) … (+/−) Amph” value in experiment [2] came out at 30 µg/mL.

B4: 178H 2A7 mAb: mouse monoclonal antibody raised against E1-KLH (56); IgG1, κ; heavy chain SEQ ID NO 82, light chain SEQ ID NO 106 (antibody)
heavy: MNFGLSLISLALILKGVQCEVHLVESGGDLVKPGGSLKLSCAASGFTFSSYVMSWVRQTPDKRLEWIATISYGGGHYTYYPDSVKGRFTISRDNAKNTLYLQMNSLKSDDTAMYYCSSGNALNYWGQGTSVTVSSAKTTPPSVYPLAPGSAAQTNSMVTLGCLVKGYFPEPVTVTWNSGSLSSGVHTFPAVLQSDLYTLSSSVTVPSSTWPSQTVTCNVAHPASSTKVDKKIVPRDCGCKPCICTVPEVSSVFIFPPKPKDVLTITLTPKVTCVVVDISKDDPEVQFSWFVDDVEVHTAQTKPREEQINSTFRSVSELPIMHQDWLNGKEFKCRVNSAAFPAPIEKTISKTKGRPKAPQVYTIPPPKEQMAKDKVSLTCMITNFFPEDITVEWQWNGQPAENYKNTQPIMDTDGSYFVYSKLNVQKSNWEAGNTFTCSVLHEGLHNHHTEKSLSHSPGK
light: MRFSAQLLGLLVLWIPGSTADIVMTQAAFSNPVTLGTSASISCRSSKSLLHYTGITYLYWYLQKPGQSPQLLIYQMSNLASGVPDRFSSSGSGTDFTLRISRVEAEDVGVYYCGQDLELPYSFGSGTKLEIKRADAAPTVSIFPPSSEQLTSGGASVVCFLNNFYPKDINVKWKIDGSERQNGVLNSWTDQDSKDSTYSMSSTLTLTKDEYERHNSYTCEATHKTSTSPIVKSFNRNEC
For the molecule B4, the “E1-OVA (55) Binding, OD650 nm w/o inhib” value in the experiment with E1-OVA (55) is reported as 2.900 OD650 nm. The “Concentrations (μg/mL) … (+/−) mAmph” value in experiment [1] was 30 to 40 µg/mL. For the same molecule, the “Concentrations (μg/mL) … (+/−) Amph” value in experiment [2] lay in the range of 40 to 45 µg/mL.

B5: 178F 4C12 mAb: mouse monoclonal antibody raised against E1-KLH (56); IgG1, κ; heavy chain SEQ ID NO 80, light chain SEQ ID NO 104 (antibody)
heavy: MNFGLSLIFLALILKGVQCEVQLVESGGDLVKPGGSLKLSCAASGFTFSRFVMSWVRQTPDKRLEWVATISSGGIHTYYLDSVKGRVTIFRDNAKNTLYLQMSSLESEDTAMYYCAAGNALDYWGQGTSVTVSSAKTTAPSVYPLAPVCGGTTGSSVTLGCLVKGYFPEPVTLTWNSGSLSSGVHTFPALLQSGLYTLSSSVTVTSNTWPSQTITCNVAHPASSTKVDKKIEPRVPITQNPCPPLKECPPCAAPDLLGGPSVFIFPPKIKDVLMISLSPMVTCVVVDVSEDDPDVQISWFVNNVEVHTAQTQTHREDYNSTLRVVSALPIQHQDWMSGKEFKCKVNNRALPSPIEKTISKPRGPVRAPQVYVLPPPAEEMTKKEFSLTCMITGFLPAEIAVDWTSNGRTEQNYKNTATVLDSDGSYFMYSKLRVQKSTWERGSLFACSVVHEGLHNHLTTKTISRSLGK
light: MRFSAQLLGLLVLWIPGSTADIVMTQAAFSNPVTLGTSGSVSCRSSKSLLHSNGITYLYWYLQKPGQSPQLLIYQMSNLASGVPDRFSSTGSGTDFTLRISRVEAEDVGVYYCGQDLELPYSFGSGTKLEIKRADAAPTVSIFPPSSEQLTSGGASVVCFLNNFYPKDINVKWKIDGSERQNGVLNSWTDQDSKDSTYSMSSTLTLTKDEYERHNSYTCEATHKTSTSPIVKSFNRNEC
As for B5, the “E1-OVA (55) Binding, OD650 nm w/o inhib” value in the experiment with E1-OVA (55) is listed as 2.836 OD650 nm. Also, the “Concentrations (μg/mL) … (+/−) mAmph” value in experiment [1] is 40 to 50 µg/mL. Also, in experiment [2], the “Concentrations (μg/mL) … (+/−) Amph” value fell in the range of 40 to 45 µg/mL.
